Data taken from publication PMC3290569, “Macro-to-Micro Structural Proteomics: Native Source Proteins for High-Throughput Crystallization” (PLoS ONE, 2012).

B1: 6-phospho-beta-glucosidase (BglA) (enzyme, Escherichia coli, UniProt Q46829 1-479, looked up)
chain: MIVKKLTLPKDFLWGGAVAAHQVEGGWNKGGKGPSICDVLTGGAHGVPREITKEVLPGKYYPNHEAVDFYGHYKEDIKLFAEMGFKCFRTSIAWTRIFPKGDEAQPNEEGLKFYDDMFDELLKYNIEPVITLSHFEMPLHLVQQYGSWTNRKVVDFFVRFAEVVFERYKHKVKYWMTFNEINNQRNWRAPLFGYCCSGVVYTEHENPEETMYQVLHHQFVASALAVKAARRINPEMKVGCMLAMVPLYPYSCNPDDVMFAQESMRERYVFTDVQLRGYYPSYVLNEWERRGFNIKMEDGDLDVLREGTCDYLGFSYYMTNAVKAEGGTGDAISGFEGSVPNPYVKASDWGWQIDPVGLRYALCELYERYQRPLFIVENGFGAYDKVEEDGSINDDYRIDYLRAHIEEMKKAVTYDGVDLMGYTPWGCIDCVSFTTGQYSKRYGFIYVNKHDDGTGDMSRSRKKSFNWYKEVIASNGEKL
notes: 6-phospho-beta-glucosidase BglA, Escherichia coli, native source protein; source: purified from E. coli DH5α cells (CaptoQ, phenyl sepharose, MonoQ)
B2: Glutamate dehydrogenase (GDH) (enzyme, Escherichia coli, UniProt P00370 1-447, looked up)
chain: MDQTYSLESFLNHVQKRDPNQTEFAQAVREVMTTLWPFLEQNPKYRQMSLLERLVEPERVIQFRVVWVDDRNQIQVNRAWRVQFSSAIGPYKGGMRFHPSVNLSILKFLGFEQTFKNALTTLPMGGGKGGSDFDPKGKSEGEVMRFCQALMTELYRHLGADTDVPAGDIGVGGREVGFMAGMMKKLSNNTACVFTGKGLSFGGSLIRPEATGYGLVYFTEAMLKRHGMGFEGMRVSVSGSGNVAQYAIEKAMEFGARVITASDSSGTVVDESGFTKEKLARLIEIKASRDGRVADYAKEFGLVYLEGQQPWSLPVDIALPCATQNELDVDAAHQLIANGVKAVAEGANMPTTIEATELFQQAGVLFAPGKAANAGGVATSGLEMAQNAARLGWKAEKVDARLHHIMLDIHHACVEHGGEGEQTNYVQGANIAGFVKVADAMLAQGVI
notes: glutamate dehydrogenase, Escherichia coli, native source protein; hexamer (dimer of trimers); source: purified from E. coli DH5α cells (CaptoQ, phenyl sepharose, MonoQ)

Molecular target: the molecule itself
Assay: crystal structure; novel structures of native source E. coli proteins, solved by molecular replacement and refined; oligomer seen in the crystal

Row | Protein | stoichiometry N
1 | B1 | 2
2 | B2 | 6
